Experimental data from patent publication US6551840B2, “Method of screening TGF-β-inhibiting substances” (Chugai Seiyaku Kabushiki Kaisha, priority 1997, dated 2003).

Experiments:
TAB1 = biological target: T1, TAB1 (Homo sapiens, UniProt Q15750); experiment: Animal cell 2-hybrid system in CHO cells, luciferase activity; assay type: cell-based; settings: 72 hours after gene introduction, similar to pM-TAK1 and pVP16-C68
T1 construct: expressed in transfected cells; host or cells: CHO cells
T1 sequence (Q15750 437-504): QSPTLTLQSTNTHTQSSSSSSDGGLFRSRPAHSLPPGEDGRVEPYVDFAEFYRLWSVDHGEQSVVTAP
Protocol: It was analyzed whether a polypeptide (TAK1-DN) comprising Glu at position 77 to Gln at position 303 of the TAK1 polypeptide as set forth in SEQ ID NO: 4 inhibits binding between the TAK1 polypeptide and the TAB1 polypeptide and whether it can inhibit the activation of the TAK1 polypeptide in animal cells by an animal cell 2-hybrid system (Dang et al., (1991) Mol. Cell. Biol. 11, 954-962) using the TAB1 polypeptide and the TAK1 polypeptide.
First, a gene encoding a full-length TAK1 and TAK1-DN and a gene encoding the GAL4 DNA-binding domain (GAL4-BD) were ligated to construct an expression vector. A gene encoding a full-length TAK1 was prepared by digesting yeast 2-hybrid expression plasmid pBTMHu11F (Shibuya H. et al., (1996) 272, 1179-1182) with restriction enzymes EcoRI and PstI, and was then linked to the EcoRI/Pst site of an expression vector pM (manufactured by CLONTECH) containing the GAL4-BD gene, which was termed an animal cell 2-hybrid expression plasmid pM-TAK1. […]
After further incubating for 72 hours, luciferase activity in each cell extract was determined using the Dual-LuciferaseTM Assay System (manufactured by Promega). […] The efficiency of gene introduction was corrected with the measured value of luciferase activity of Renilla by pRL-SV40.

Mv1Lu cell = experiment: PAI-1 ELISA in culture supernatant of Mv1Lu cells with or without TGF-β1; assay type: cell-based, mink; settings: Mv1Lu cells with forced expression; 10 ng/ml TGF-β1, 24 hours; control cells about 16-fold
From the text: Accordingly, TAK1DN was subjected to forced expression in the Mv1Lu cell to investigate the effects of TGF-β stimulation on PAI-1 expression. The TAK1DN expression vector used was the above-mentioned TAK1DN, and the TAK1 polypeptide mutant TAK1-K63W expression vector was constructed by inserting a gene (Yamaguchi K. et al., (1995) Science 270, 2008-2011) encoding the TAK1 polypeptide mutant TAK1-K63W in which the lysine residue at position 63 has been replaced with the tryptophan residue at the EcoRI and NotI restriction enzyme site of pCOS1 to give pTAK1K63W.
The Mv1Lu cells into which pTAK1Dn had been introduced (Mv/DN2), the cells into which pTAK1K63W had been introduced (Mv/KN7), and the control cells into which pCOS1 containing no inserted genes (Mv/NEO) had been introduced were each incubated in a low-serum medium (MEM medium containing 0.2% FBS; manufactured by GIBCO-BRL) with or without 10 ng/ml of TGF-β1 for 24 hours. The amount of PAI-1 in the culture supernatant was determined using the PAI-1 Quantative ELISA (manufactured by CALBIOCHEM).

binding to TAB1: luciferase activity for pM-TAK1DN and pVP16-C68 (TAB1): binds to TAB1
B1: TAK1-DN: polypeptide of Glu at position 77 to Gln at position 303 of TAK1 (SEQ ID NO: 4), the TAB1 binding site; dominant negative inhibitor (protein)
chain: ELRQLSRVNHPNIVKLYGACLNPVCLVMEYAEGGSLYNVLHGAEPLPYYTAAHAMSWCLQCSQGVAYLHSMQPKALIHRDLKPPNLLLVAGGTVLKICDFGTACDIQTHMTNNKGSAAWMAPEVFEGSNYSEKCDVFSWGIILWEVITRRKPFDEIGGPAFRIMWAVHNGTRPPLIKNLPKPIESLMTRCWSKDPSQRPSMEEIVKIMTHLMRYFPGADEPLQYPCQ
increase in PAI-1 in the culture supernatant by TGF-β1 addition (Mv1Lu cell): about 4.3 fold
